Molecules are shown by their SMILES. Several values for one entry are separate records, joined by “and”; a condition that tells them apart may be missing. Equal values may be shown once.

Here are results for three molecules from patent US12337037B2, “Taxol conjugate compounds, pharmaceutical compositions comprising the same, and methods for their use” (N1 Life, Inc, priority 2021, dated 2025).

The subject of data set [1] is NCI-H460-luc2 human intracranial cells. Kind of data set: Efficacy against brain cancer: survival in NCI-H460-luc2 intracranial model. The following applies: for Increase Life Span (%): vs vehicle group; for Median Survival Time: MST ± SEM. Type of data set: in vivo, Female BALB/c nude mice. The procedure: Cell Culture: Luciferase marked NCI-H460-luc2 human intracranial cells were maintained in vitro as a monolayer culture in ATCC formulated RPMI1640 medium supplemented with 10% heat inactivated fetal bovine serum, 100 U/mL penicillin and 100 μg/mL streptomycin at 37° C. in an atmosphere of 5% CO2 in air. The tumor cells were routinely subcultured twice weekly by trypsin-EDTA treatment. The cells growing in an exponential growth phase were harvested and counted for tumor inoculation.
Tumor Inoculation and Animal Grouping: Female BALB/c nude mice were anesthetized with avertin (20 μL/g). The animals were dosed intraperitoneally with 10 mg/kg of carprofen 30 minutes post-surgery for pain relief.
The anesthetized mouse was properly positioned. The surgical area was prepped with 70% ethanol solution. Using a sterile scalpel, a sagittal incision was made over the parieto-occipital bone, approximately 1 cm long. The exposed skull surface was then cleaned using a cotton swab soaked in 0.9% saline. Prior to tumor cell injection, a sterile 25 gauge sharp needle was used to puncture the skull at 2 mm to the right of the bregma and 1 mm anterior to the coronal suture, thereby creating an opening for the injection of tumor cells. Prior to drawing cells into the syringe, the contents of the cell suspension was mixed by tapping with finger. The syringe was loaded with the desired amount of cell suspension, and extra care was taken to avoid air bubbles. The outside of syringe was then cleaned with an alcohol swab to wipe the exterior free of any adherent cells, which helped to prevent extracranial tumor establishment and growth. To ensure that the appropriate injection depth was achieved, a 3 mm length was cut off on pointed end of a P20 pipetteman tip by a scalpel. This section of the tip was fitted over the syringe to limit the injection depth, and to ensure that the tip of the syringe needle was 3 mm from the underside of the skull. The syringe was placed perpendicular to the skull, in the hole previously created. And the cell suspension was slowly injected (a 3 μL suspension contains 1×10^5 NCI-H460-luc2 cells in 20% Matrigel should be injected over a 1 minute period). Intraventricular injection of cells and subsequent spinal dissemination was prevented by appropriate angle of syringe insertion. Upon completion of injection, the needle was left in place for another minute, and then slowly withdrawn. The hole as closed with medical anastomotic glue (OB). Using forceps, the scalp was drawn together over the skull and the incision was closed with surgical suture. The mice were kept warm until completely recovered from anesthesia.
Animals were selected and randomized (based on their bioluminescence density) on day 4 after tumor implantation.
Observations: During routine monitoring, the animals were checked daily for any effects of tumor growth and treatments on normal behavior such as mobility, food and water consumption (by looking only), body weight gain/loss (body weights were measured twice weekly or daily), eye/hair matting and any other abnormal effect stated in the protocol. Death and observed clinical signs were recorded on the basis of the numbers of animals within each subset.
Bioluminescence Measurements and Endpoints: The surgically inoculated mice were weighed and intraperitoneally administered luciferin at a dose of 150 mg/kg. Ten to fifteen minutes after the luciferin injection, the animals were pre-anesthetized with the mixture gas of oxygen and isoflurane. When the animals were in a complete anesthetic state, the mice were moved into the imaging chamber for bioluminescence measurements with an IVIS (Lumina II) imaging system.
The major endpoint was to determine if the tumor bioluminescence growth can be delayed, decreased, or vanished. […] The bioluminescence of the whole animal body, including primary and metastatic tumors, was measured and recorded once per week according to protocol (bioluminescence data not shown). […]

Data set [2] is described as follows: Stability in plasma, human. Format: in vitro ADME. The following applies: for half-life: 37° C., read-out: Mean T1/2 (converted). The procedure: (§1) Working solutions of test compounds were prepared in PBS (pH 7.4). Propantheline was used as positive control for human, monkey, dog and mouse plasma in the assay. Mevinolin was used as positive control for rat plasma in this assay. 1 mM propantheline working solution was prepared in acetonitrile. 1 mM mevinolin working solution was prepared in DMSO. Incubation buffer of 475 μL plasma for each cell was added into the incubation plate and pre-warmed at 37° C. for 15 minutes. After the pre-incubation, 25 μL of working solution (test compounds or control compounds) was spiked to plasma. For Compound 5 and Compound 3, the final concentration of organic concentration was 0%. For Taxol, the final concentration of organic solvents was 0.25%. The assay was performed in duplicate. The reaction samples were incubated at 37° C. Aliquots of 50 μL were taken from the reaction samples at 0, 0.25, 0.5, 1, 2, 4, 6, 8 and 24 hours. The reactions were stopped by the addition of 450 μL of ice-cold quench solution (methanol with 2% FA containing internal standards). All samples were vortexed for 10 minutes, following by centrifugation at 3,220 g for 30 minutes to precipitate proteins. 100 μL of the supernatant from each well was transferred to a new plate. The supernatant was diluted with ultrapure water. Samples were analyzed by LC-MS/MS. All calculations were carried out using Microsoft Excel. Peak area ratios were determined from extracted ion chromatograms. Percent compounds remaining at each time point were calculated by the following equation: Remaining Percentaget min(%)=Peak Area Ratiot min/Peak Area Ratio0 min×100
(§2) Peak Area Ratiot min is peak area ratio of control and test compounds at t min; and
(§3) Peak Area Ratio0 min is peak area ratio of control and test compounds at zero time point.
(§4) The slope value, k, was determined by linear regression of the natural logarithm of the remaining percentage of the parent drug vs. incubation time curve.
(§5) The in vitro half-life (in vitro t1/2) was determined from the slope value: in vitro t1/2=(0.693/k)

A further data set can be described thus: Stability in plasma, dog. Type of data set: in vitro ADME. The following applies: for half-life: 37° C., read-out: Mean T1/2 (converted). The procedure:
as §1, §2, §3, §4, §5

Another data set is described as follows: Stability in plasma, rat. Type of data set: in vitro ADME. The following applies: for half-life: 37° C., read-out: Mean T1/2 (converted). The procedure: as §1, §2, §3, §4, §5
Data set [3] can be described thus: Stability in plasma, mouse. Type of data set: in vitro ADME. The following applies: for half-life: 37° C., read-out: Mean T1/2 (converted). The procedure:
as §1, §2, §3, §4, §5

On to `CC(=O)O[C@H]1C(=O)[C@@]2(C)[C@H]([C@H](OC(=O)c3ccccc3)[C@]3(O)C[C@H](OC(=O)[C@H](O)[C@@H](NC(=O)c4ccccc4)c4ccccc4)C(C)=C1C3(C)C)[C@]1(OC(C)=O)CO[C@@H]1C[C@@H]2O` [Taxol, paclitaxel], for which, in data set [1] (Paclitaxel 10 mg/kg), the “Increase Life Span (%)” value is on record as −28.57%; the “Median Survival Time” value is 10 days and 10 ± 1 days.
As for `CC(=O)N[C@H](CSSCCCC(=O)O[C@@H](C(=O)O[C@H]1C[C@@]2(O)[C@@H](OC(=O)c3ccccc3)[C@@H]3[C@]4(OC(C)=O)CO[C@@H]4C[C@H](O)[C@@]3(C)C(=O)[C@H](OC(C)=O)C(=C1C)C2(C)C)[C@@H](NC(=O)c1ccccc1)c1ccccc1)C(=O)N[C@H](CCCNC(=N)N)C(=O)N[C@H](CCCNC(=N)N)C(=O)N[C@H](CCCNC(=N)N)C(=O)N[C@H](CCCNC(=N)N)C(=O)N[C@H](CCCNC(=N)N)C(=O)N[C@H](CCCNC(=N)N)C(=O)N[C@H](CCCNC(=N)N)C(=O)N[C@H](CCCNC(=N)N)C(N)=O` [Compound 5, Ac-D-Cysteine (paclitaxel-4-mercaptobutanoate)-D-Arginine8-NH2], the half-life was 1.03 h in data set [2]; 2.76 h in “Stability in plasma, dog”; 0.3 h in the data set “Stability in plasma, rat”; 0.79 h in data set [3].
With `CC(=O)N[C@@H](CSSCCCC(=O)OC(C(=O)O[C@H]1C[C@@]2(O)[C@@H](OC(=O)c3ccccc3)[C@@H]3[C@]4(OC(C)=O)CO[C@@H]4C[C@H](O)[C@@]3(C)C(=O)[C@H](OC(C)=O)C(=C1C)C2(C)C)[C@@H](NC(=O)c1ccccc1)c1ccccc1)C(=O)N[C@H](CCCNC(=N)N)C(=O)N[C@H](CCCNC(=N)N)C(=O)N[C@H](CCCNC(=N)N)C(=O)N[C@H](CCCNC(=N)N)C(=O)N[C@H](CCCNC(=N)N)C(=O)N[C@H](CCCNC(=N)N)C(=O)N[C@H](CCCNC(=N)N)C(=O)N[C@H](CCCNC(=N)N)C(N)=O` (stereo partly drawn) [Compound 3, Ac-L-Cysteine (paclitaxel-4-mercaptobutanoate)-D-Arginine8-NH2], the “Percent Increase of T1/2, Compound 3 over Compound 5” value in data set [2] was determined as 18.45%; in “Stability in plasma, dog” it was 1%; in “Stability in plasma, rat”, 50%; in data set [3], 34.18%. The half-life in data set [2] is 1.22 h; in the data set “Stability in plasma, dog”, 2.79 h; in the data set “Stability in plasma, rat”, 0.45 h; in data set [3] it was 1.06 h. The figures for the “Increase Life Span (%)” value in data set [1] (Compound 3 9.6 mg/kg), in data set [1] (Compound 3 19.2 mg/kg) and in data set [1] (Compound 3 38.4 mg/kg) were 0.00%, −28.57% and 0.00%, respectively. Also, the “Median Survival Time” value is 14 days in data set [1] (Compound 3 9.6 mg/kg); 10 ± 2 days in data set [1] (Compound 3 19.2 mg/kg); 14 days and 14 ± 1 days in data set [1] (Compound 3 38.4 mg/kg, 38.4 mg/kg). In addition, the “survivors at the end point” value in data set [1] (Compound 3 38.4 mg/kg) is listed as “one mouse in Compound 3 38.4 mg/kg group was still alive”.
